Reference: article PMC11476191, “Towards controlling activity of a peptide asparaginyl ligase (PAL) by lumazine synthetase compartmentalization” (Faraday Discussions, 2024)

Legend:
[1] = target: AaLS-13 (Aquifex aeolicus); assay: SEC; Ni-NTA eluate of the co-expressed proteins on Superose 6; 50 mM sodium phosphate pH 7.0, 150 mM NaCl, 1 mM EDTA, 1 mM TCEP; fractions by SDS-PAGE; repeated in buffer at pH 7.0 and 7.4
[2] = target: the molecule itself; assay: negative stain transmission electron microscopy; purified protein samples (0.05-0.15 mg/mL) on carbon-covered copper grids, uranyl acetate stain, 200 kV

Molecule	ratio of cpAaLS-OaAEP1-C247A to AaLS-13 in the cage (estimated from SDS-PAGE band intensity) (AaLS-13 per cpAaLS-OaAEP1-C247A) [1]	binding result [2]
cpAaLS-OaAEP1-C247A	3.3	–
AaLS-13 (other, Aquifex aeolicus, negatively supercharged engineered variant of lumazine synthase from Aquifex aeolicus (AaLS); Self-assembles into a protein cage; also called His6-tagged AaLS-13; AsLS-13; source: E. coli SHuffle T7 Express, co-expressed with cpAaLS-OaAEP1-C247A (IPTG induction); in lysate, then purified (Ni-NTA IMAC, SEC)) MEIYEGKLTAEGLRFGIVASRFNHALVGRLVEGAIDCIVRHGGREEDITLVCVPGSWEIPVAAGELARKEDIDAVIAIGVLIEGAEPHFDYIASEVSKGLANLSLELRKPISFGDITDDELEEAIECAGTEHGNKGWEAALSAIEMANLFKSLR	–	binds
